{
  "source": "the DeepSol protein solubility set",
  "experiment": "soluble on expression in E. coli; label from the status in PepcDB or PDB records",
  "data": [
    {"sequence": "MNEKQKLESGQVHPSDKKSEKDYSKYFEAVYIPPSLKDAKKRGKEAVTYHNDFKISEQFKGLGDGRKFYIRTYGCQMNEHDTEVMAGIFMALGYEATNSVDDANVILLNTCAIRENAENKVFGELGHLKALKKNNPDLILGVCGCMSQEESVVNRILKKHPFVDMIFGTHNIHRLPELLSEAYLSKEMVVEVWSKEGDVIENLPKVRNGKIKGWVNIMYGCDKFCTYCIVPYTRGKERSRRPEDIIQEVRRLASEGYKEITLLGQNVNAYGKDFEDMTYGLGDLMDELRKIDIPRIRFTTSHPRDFDDRLIEVLAKGGNLLDHIHLPVQSGSSEVLKLMARKYDRERYMELVRKIKEAMPNASLTTDIIVGFPNETDEQFEETLSLYREVEFDSAYTFIYSPREGTPAAKMKDNVPMRVKKERLQRLNALVNEISAKKMKEYEGKVVEVLVEGESKNNPDILAGYTEKSKLVNFKGPKEAIGKIVRVKIQQAKTWSLDGEMVGEAIEVKLEHHHHHH", "values": [
      {"measurement": "soluble on expression in E. coli", "result": "soluble"}
    ]},
    {"sequence": "MSLTPKKISSISLEVTGSIVSIGLAVYKDIFEYINLVTHKFIYFQDLERKNIELQLEIARLQHLQSEVESVKAENIALKDLLMIAEEEEFEYLTTKLLSVSFNPFSRTALISAGKKQGIEPDQIVVNSGKLVGKIIEVSNNYSKVMLISDVNSRIPIKANSSREQGILAGNNNNSKILYLPNNHLVQKDEEIVTSGHGNIYPAGILVGYVSRVTENDVIVNLAADLSKMEFVQILLPKQEGHHHHHH", "values": [
      {"measurement": "soluble on expression in E. coli", "result": "soluble"}
    ]},
    {"sequence": "SLNVLCNNPHTADCNNDAQVDRYFREGTTCLMSPACTSEGYASQHECQQACFVGGEDHSSEMHSSCLGDPPTSCAEGTDITYYDSDSKTCKVLAASCPSGENTFESEVECQVACGAPIEG", "values": [
      {"measurement": "soluble on expression in E. coli", "result": "soluble"}
    ]},
    {"sequence": "MAHHHHHHMSAARDDSAPCAVPSTLWRECLKQYDYGPDRPKGACEAHRTKFYDCVKDWTARTQHKSYSYTQFELPKSCGHEAEKLHQCMMMNMFEVGHCQRDMAVLKRCAARVDPEVRKYLQDDEAIADLENDIDEATGLKRLWYKVIGKL", "values": [
      {"measurement": "soluble on expression in E. coli", "result": "soluble"}
    ]},
    {"sequence": "MREYKLVVLGSGGVGKSALTVQFVQGIFVDEYDPTIEDSYRKQVEVDCQQCMLEILDTAGTEQFTAMRDLYMKNGQGFALVYSITAQSTFNDLQDLREQILRVKDTEDVPMILVGNKCDLEDERVVGKEQGQNLARQWCNCAFLESSAKSKINVNEIFYDLVRQINR", "values": [
      {"measurement": "soluble on expression in E. coli", "result": "soluble"}
    ]},
    {"sequence": "MSLKAQRYASVLTLDNLTGRLVVVGDIHGCLAQLQGMLRAVSFKQGSDTLVAVGDLVNKGPDSFGVVRLLKRLGAHSVLGNHDVKLLKLVKKIREKGPLNERDTKSSLAPFALTVPVDVEVYLSQLPHIIRIPAHNVIMTHGGLHPQRPLDCQYIDEVTTLRNLIEKEQKAGGVTLVATPETKDGGVPWASLWRGPETVVFGHDSRRGLQEQYRPLAIGLDSGCVYGGRLSAAVFPGGHIVSVSGWRREAKEGHHHHHH", "values": [
      {"measurement": "soluble on expression in E. coli", "result": "soluble"}
    ]},
    {"sequence": "MGSDKIHHHHHHMREIDVHPAFTDLNGSGPDPDLSPLPVVARVGSYSMGWRVEAHAHQRGQLMFVTNGSMRVETRDGSWITPPGRACWIPSAAVHSAIYTQASKMQTVLIAPELLETLPKRCCVIKLTPLLRELVSQAVAINNQYTLHSREHRLMQVLVDQISTAQQAPLFLPEGRDPRLRRVTESLHQNPGDDRSIEAWAQIAGASARTLARLFQKETGMTYSSWRQQLCLIRAVEMLTEGASVTNIALALGYESTAGFTSMFTRSMGESPSNYLTRWSQETTASE", "values": [
      {"measurement": "soluble on expression in E. coli", "result": "not soluble"}
    ]},
    {"sequence": "MRGSHHHHHHTDPALRAENIMNNPVIGVVMCRNRLKGHATQTLQEKYLNAIIHAGGLPIALPHALAEPSLLEQLLPKLDGIYLPGSPSNVQPHLYGENGDEPDADPGRDLLSMAIINAALERRIPIFAICRGLQELVVATGGSLHRKLCEQPELLEHREDPELPVEQQYAPSHEVQVEEGGLLSALLPECSNFWVNSLHGQGAKVVSPRLRVEARSPDGLVEAVSVINHPFALGVQWHPEWNSSEYALSRILFEGFITACQHHIAEKQRLGLCGR", "values": [
      {"measurement": "soluble on expression in E. coli", "result": "soluble"}
    ]},
    {"sequence": "GSGMRFYVKDHRNKAMINLHIQKDNPKIVHAFDMEDLGDKAVYCRCWRSKKFPFCDGAHTKHNEETGDNVGPLIIKKKET", "values": [
      {"measurement": "soluble on expression in E. coli", "result": "soluble"}
    ]},
    {"sequence": "MGSDKIHHHHHHMIFTLPNTTTQEIAKTLVKIRDTGGQVTTSRVLTLIVVARDTSDVEGIIRATNEASQEHPSRVIILVAGSHEGESQVDAEVRIGGDAGASEMILIKLAGRVAKHLVHVVTPLLLPDTPIVAWWPSSAPINPAEDPIGKIAQRRITDSHFDPPVDALYNRRNHYAPGDSDFSWARLTPWRGVLASSLDQAPYEMVQDVRVYGESDCPSVDLAAGWLCERLGISVERHNYGSGSAAFDDAGLAKIPVKRIELERPSGCVVIEALDDDQTLSVSIPGRSTAHVAVTRRSQADCLAEELRHLDPDIAYARALRGLSRVSYPTQ", "values": [
      {"measurement": "soluble on expression in E. coli", "result": "not soluble"}
    ]},
    {"sequence": "MERRSTDLLVLGAGVAGVYAALAAEERGARVLLVSKDPLPAGSTPWAQGGVAFPVGEEDLEAHLRDTLVAGRGLVEEGVARSILEEAPRHLERLRAFGLPFHPEPTREGGHSRARVFHLGGDRSGLLLLEGLLKRLSTPVVPAQALSLLVSGNRVAGALLWGPGGLWEVRAGAVLLATGGFGRLFPVTTNPHGATGDGMALAWRAGAVLRDLEFVQFHPTALPNGALVSEACRGEGALLLNAHGERFMPRYDPLAELAPRDVVARAVFRERERTGGVYLDLRPIPHLEERFPTVVAQARALGLDPLRAPLPVAPAAHYAMGGVRTDAFGHTGIPGLFAAGEVASTGFHGANRLASNSLLEGLVVGWRAALRALEDLAFPPRATPLPALAAPPEAVASLREEAGEALGVVRRKETLLAFLRRAEAVPLEEVEQASRDRLEAGSLLLLMRLLARAALAREESRGAHFREDFPLEDRPRHSLFQGWRLGFLPVGVE", "values": [
      {"measurement": "soluble on expression in E. coli", "result": "soluble"}
    ]},
    {"sequence": "MGSDKIHHHHHHLNQPLTPQPIKTMTDKRQAILDTALALFVSQGFHGTSTASIAKQAGVATGTLFHHFPSKEALMESLFLTIKQQFADTLLLNTHKGSDLKLNALQLWQSAIDWSLDNPVKQLFFQQYSMSPMIAAKVRDQAMNSILGFISELIKQGQMEGLIAHYPLELMLENCHGQYLAATRFFIDNPHLGTNTRYRDASFELFWKAMQAD", "values": [
      {"measurement": "soluble on expression in E. coli", "result": "not soluble"}
    ]},
    {"sequence": "MNFPWRDGNRVELLINGEEYFPRLFQCIAEARREILLETFIIFEDEVGRQLQEALSAAAERGVEVQVTVDGYGTASLSPDYLARLTASGVRVHLFDPRPRLLGMRTNLFRRLHRKLVVIDRRQAFVGGINYGEDHLVRRGNMAKQDYAVRVEGPVVRDIRQACLALLEPDADYPPLRPSGAGQPARVRLVIRDNDQSSDDIEREYLQAIRQARRRLLIANAYFFPGYRLLRELRDAARRGVRVDLVLQGMPDMPLVRLCSRLLYDYLLREGVRIHEYCQRPLHGKVAVIDDDWSTIGSSNLDPLSLSLNLEANLVIRDVAFNGQLYQHLRELARRHCRRISRRHARRGYWWRAPLIFLGFHFSRHFPAIAGWVPAHLPRLKSLEPRPSRRWQERQGQRGNP", "values": [
      {"measurement": "soluble on expression in E. coli", "result": "not soluble"}
    ]},
    {"sequence": "MAHHHHHHMMLHTRRTVYSCICVHTHTHTHTCGCPPPTLSQKKKRSRLFMSSSSGDEYDPAEVTVHTTVASPSLSDTVVPSAAPFLRSAAGNASAATVAAAPALASLPKTAASVLPSSSSPTPPNTGNDVDGGYRLHSNIKGRIRCLTLNTAGTTLCAGSEDGQLCMWDFTVPLKSYRVQPTRVLTPFVNRISGLQPIIALTCASDDSYFVACQDGDSPVLVRASGEQLGYCAIGERGLMDVIQCKGHRAPVTCVAAHTHDAAAFFTGSQDGTVRLWNTATFKQRSVYAVKHGSGQLTDTHAVESVASLDSFHNGLGRVFASGGQDGRVQIWDSRVKYRPGGAIATVDMYAAAAPAGPDKVTEDPFMEKHVGGMMELHQKDAGASNASGSYGLAVRLGSAVKIIDLRQLSHSDGTTAPKAVLQEAATGLPHVLDTSALSIGRGGGSSTMMTCTSRVGYRHTKGGHVVQYRYADGDRLVPTLVWRAGKQDEDVLCACADISRADGCVFAGLSSGDVVVHGAFSSGAAAPQPMEAWLQTRPQREGYERAVGVKAPRAVEDDADLLRDLF", "values": [
      {"measurement": "soluble on expression in E. coli", "result": "not soluble"}
    ]},
    {"sequence": "SLLTALTADNQELFSLIDCSIDELTQIRSEQAFVCPMCHQSVILKAGPIKIPHFAHRKKNSCWYEAEAETEEHLRLKQLFAEKCLREKLSFQVEAYLPTLKQRPDLLIGKIAIEIQCSPLPIKRLVERTETYQTHGYQVVWILGERLVPKDKLTQLTKQFLYFSESLGFYLWSANKKQERIELLCHIEESQCQQFYRRKQSWDFYEKQLLEIFRLPTANLNLLPDRRHTGQLMHDYYQKLTQQLGYRNAQLLRTQSFLYTKGCHLLQLPPWFYYPGLKLIPSSEEDIHLKMLVWEALKTEEERLVTKQELWRILEAIFLEEGNFVWQPLPNIGLKKLFKIVGNNLLRWLQECYVLIKVNNKYLITSIFLREDPEKLIHWLKKVKKQHFFSHTC", "values": [
      {"measurement": "soluble on expression in E. coli", "result": "soluble"}
    ]}
  ]
}
